Measured values from PMC12768131, “Common cold embecovirus imprinting primes broadly neutralizing antibody responses to SARS-CoV-2 S2” (The Journal of experimental medicine, 2025).

Molecular target: T1, full-length SARS-CoV-2 spiketrimer (HP-GSAS-Mut7) (SARS-CoV-2, ancestral (Wuhan-Hu-1), stabilised)
T1 construct: also called full-length spike trimer; full-length spike
Assay: BLI
Conditions: both partners purified

B1: R125–61 Fab (Fab, V domains shown)
VH: QVQLQESGPGLVKPSETLSLICTVSGGSITRDFWSWVRQPPGKGLEWIGYGYYRGSTNYNPSLESRVTISVDTSKNQFSLKLTSVTAADTAVYYCARETAHNWIDTWGQGILVTVSS
VL: DIVMTQSPESLALSLGERATINCKSSQTVSFTSNNKNYLAWYQQKPRQPPKLLFYWASTRHSGVPDRFSGSGSGTDFTLTINSLQAEDVAVYFCHQYFSTPWTFGQGTKVEI
Binder B1 has a Kd of 4.7 nM.
